According to patent EP2085478A1:

Biological target: XKVLQT1 (Xenopus KVLQT1 homologue, 1.6 kb partial clone) (Xenopus) (UniProt P70057)
Experiment: cell-based or functional assay

UniProt P70057, sequence (P70057 other isoform, or with tags, fused parts or gaps): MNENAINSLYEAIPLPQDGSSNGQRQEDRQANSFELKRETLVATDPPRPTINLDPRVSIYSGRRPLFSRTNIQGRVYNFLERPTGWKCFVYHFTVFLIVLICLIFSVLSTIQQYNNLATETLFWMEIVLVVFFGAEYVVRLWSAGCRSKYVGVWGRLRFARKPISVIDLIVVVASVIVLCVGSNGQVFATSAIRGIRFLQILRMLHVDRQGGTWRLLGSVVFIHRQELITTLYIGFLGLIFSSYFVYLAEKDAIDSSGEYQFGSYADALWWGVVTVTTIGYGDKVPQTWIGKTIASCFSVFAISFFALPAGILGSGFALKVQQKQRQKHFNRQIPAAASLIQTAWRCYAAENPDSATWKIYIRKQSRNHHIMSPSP

## human minK (from UniProt P15382 1-129)
  IsK at +40 mV, oocytes injected with 60 pg hminK cRNA: 2.11 µA
  IsK at +40 mV, oocytes injected with 1 ng hminK cRNA: 2.2 µA
  V½ of the normalized isochronal activation curve, oocytes injected with hminK: 2.4 mV
